Measured values from patent publication US20260224724A1, “GLYCOSYNTHASE VARIANTS FOR ANTIBODY-DRUG CONJUGATE ENGINEERING” (OBI Pharma, Inc., priority 2022, published 2026).

Experiments:
Herceptin-GlcNAc = assay: Transglycosylation of glycan-oxazoline to Herceptin-GlcNAc, monitored by HPLC; format: biochemical; conditions: for 1N-G2S2 (hemi-glycosylated) / 2N-G2S2 (fully glycosylated) / GlcNAc(F) (unreacted acceptor) / 1N-Glycan / 2N-Glycan / GlcNAc(F): acceptor Herceptin-GlcNAc; for 1N-G2S2 (hemi-glycosylated) / 2N-G2S2 (fully glycosylated) / GlcNAc(F) (unreacted acceptor): NSCT-oxa, best conditions (20:1 EndoSz-D234M, 150:1 EndoSd-D232M)
Description: (§1) In general procedures, mAb-GlcNAc/mAb-GlucNAc-F (5 mg) was incubated with glycan-oxa with molar ratio 1:20 and 1:150 (mAb-GlcNAc:NSCT-oxa) by EndoSz-D234M (167 μg) or EndoSd-D232M (1002 μg), respectively, at 30° C. for 20 minutes in a MOPS buffer (50 mM, pH 6.7), to final volume 500 μL. There were some slight modifications according to experiment purposes and designs (see result section). HLPC was employed to monitor the transglycosylation efficiency.
(§2) The glycosynthase activity was analyzed by HPLC (Waters e2695) using 2.1×150 mm UPLC Glycoprotein Amide Column (Waters) under two different buffers (Buffer A, ddH2O/0.3% v/v HFIP (1,1,1,3,3,3-Hexafluoro-2-propanol), 0.1% v/v TFA; Buffer B, ACN, 0.3% v/v HFIP, 0.1% v/v TFA) with the gradient as Table 4.
(§3) After ensuring the baseline stability by injection water blank, the process was started by 2 μL sample injection. In the process duration (29 mins), the flow rate was 0.2 mL/min under the column temperature of 65° C. and sample tray temperature of 5° C.

Herceptin-GlcNAc-F = assay: Transglycosylation of glycan-oxazoline to fucosylated Herceptin-GlcNAc-F, monitored by HPLC; format: biochemical; conditions: for GlcNAc(F) (unreacted acceptor) / 1N-G2S2 (hemi-glycosylated) / 2N-G2S2 (fully glycosylated, Herceptin-2N-G2S2F): NSCT-oxa, best conditions; for 1N-G2S2 (hemi-glycosylated) / 2N-G2S2 (fully glycosylated, Herceptin-2N-G2S2F) / 1N-Glycan / 2N-Glycan / GlcNAc(F): acceptor Herceptin-GlcNAc-F
Description: as §1, §2, §3

B1: EndoSd-D232M: D232M glycosynthase mutant of EndoSd from Streptococcus dysgalactiae subsp. Dysgalactiae, SEQ ID NO 1 (protein, listed as Streptococcus dysgalactiae)
chain: MGTILGTHHDSLISVKAEEKITQVSQTSTSIDDLHYLSENSKKEFKEELSKEKVPEKVKEILSKAQQANKQAQELAEMKVPDKIPMKPLNGPLYGGYFRTWHDKTSDPLEKDKVNSMGELPKEVDLAFVFHDWTKDYSLFWKELATKHVPKLNKQGTRVIRTIPWRFLAGGDNSGIAEDASKYPNTPEGNKALAKAIVDEYVYKYNLDGLDVMIEHDSIPKVNGEASDENLKRSIDVFEEIGKLIGPKGADKSRLFIMDSTYMADKNPLIERGAPYIDLLLVQVYGSQGEQGEFQNDTKSVTKTPEERWQGYSKYIRPEQYMIGFSFYEEKAGSGNLWYDINARKDEDTANGINDDITGTRAERYARWQPKTGGVKGGIFSYAIDRDGVAHQPKQIAEKDKQSVKNNRPLISEITDNIFHSNYSVSKTLKTVMLKDKAYDLIDEKDFPDKALREAVMAQVGTRKGDLERFNGTLRLDNPAIQSLEGLNKFKKLAQLDLIGLSRIIKLDQSVLPANMKPGKDPLETVLETYKKNGKEEPAIIPPVSLTVSGLTGLKELDLSGFDRETLAGIDAATLTSLEKVDISDNKLDLAPKTENRQIFDVMLSTVNNNAGISEQSIKFDNQKPAGNYPQTYGATNLQLPVRQEKIDLQHQLLFGTITNQGTLINSEADYKTYRNQKIAGRNFVDPDYPYNNFKVSHDNYTVKVTDSTLGTTTDKMLATDKEETYKVDFFSPTDKTKAVHTAKVIVGDEKTMMVNLAEGATVIKSENDENAQKVFNGIMEYNPLSFNNKSSIIFEIKDPSLAKYWRLFNDSSKDKKDYIKEAKLEVFTGQLNAEADVKTILEKPDNWVTVSTYSGEEKVFSHSLDNISAKYWRVTVDNKKDQYGYVSLPELQILGYPLPNADTIMKTVTVAKELSQQKDKFPQQLLDESTAKEAVVEASLNSKLFDTGVINTNVEALKNVVDECLAYEKNKETAFKATEDYRAAVNGVKAESVTVEEMAQLKDLIGKAAHLNSKIDAKLADREYDKDLLGLIGELTNITRTVKSFVKHHHHHH
Relative transglycosylation activity of EndoSd mutants (Herceptin-GlcNAc; EndoSd-D232M set to 100%, NSCT-oxa donor, best conditions): 100% | 1N-G2S2 (hemi-glycosylated) (Herceptin-GlcNAc): 2.11% | 2N-G2S2 (fully glycosylated) (Herceptin-GlcNAc): 97.88% | GlcNAc(F) (unreacted acceptor) (Herceptin-GlcNAc): 0% | Herceptin-2N-G2S2 generated (Herceptin-GlcNAc; molar ratio 20:1 (NSCT-oxa/antibody), final condition of EndoSz-D234M): 46.06% | GlcNAc(F) (unreacted acceptor) (Herceptin-GlcNAc-F): 0% | 1N-G2S2 (hemi-glycosylated) (Herceptin-GlcNAc-F): 3.17% | 2N-G2S2 (fully glycosylated, Herceptin-2N-G2S2F) (Herceptin-GlcNAc-F): 94.75%

B2: EndoSz-D234M: D234M glycosynthase mutant of EndoSz from Streptococcus equi subsp. Zooepidemicus Sz105, SEQ ID NO 2 (protein, listed as Streptococcus equi)
chain: MVAILAAQHDSLIRVKAEDKLVQTSPSVSAIDALHYLSENSKKEFKEELSKVEKAQPEKLKEIVSKAQQADKQAKTLAEMKVPEKIPMKPLKGPLYGGYFRTWHDKTSDPAEKDKVNSMGELPKEVDLAFVFHDWTKDYSLFWQELATKHVPTLNKQGTRVIRTIPWRFLAGGDHSGIAEDAQKYPNTPEGNKALAKAIVDEYVYKYNLDGLDVMIERDSIPKVNKEESKEGIERSIQVFEEIGKLIGPKGADKSRLFIMDSTYMADKNPLIERGAPYIDLLLVQVYGTQGEKGGFDNANHKAVDTMEERWESYSKYIRPEQYMVGFSFYEEKANSGNLWYDVNVEDDTNPNIGSEIKGTRAERYAKWQPKTGGVKGGIFSYGIDRDGVAHPKKNGPKTPDLDKIVKSDYKVSKALKKVMENDKSYELIDQKDFPDKALREAVIAQVGSRRGNLERFNGTLRLDNPDIKSLEGLNKLKKLAKLELIGLSQITKLDSSVLPENIKPTKDTLVSVLETYKNDDRKEEAKAIPQVALTISGLTGLKELNLAGFDRDSLAGIDAASLTSLEKVDLSSNKLDLAAGTENRQILDTMLATVTKHGGVSEKTFVFDHQKPTGLYPDTYGTKSLQLPVANDTIDLQAKLLFGTVTNQGTLINSEADYKAYQEQEIAGHRFVDSSYDYKAFAVTYKDYKIKVTDSTLGVTDHKDLSTSKEETYKVEFFSPINSTKPVHEAKIVVGEEKTMMVNLAEGATIIGGDADPTNAKKVFDGLLNNDTTTLSTSNKASIIFELKEPGLVKHWRFFNDSKISKADYIKEAKLEAFVGHLEDSSKVKDSLEKSTEWVTVSDYSGEAQEFSQPLNNIGAKYWRITIDNKKSQYGYVSLPELQIIGHRLPEAATVMTTMAAAEELSQQKDKFSQEQLKELEVKVAALKAALDNKMFNADTINASFADVKAYIDKLLADAAGKKTLGKATKEAQPVATDAKEKAESENPKADHHHHHH
Relative transglycosylation activity of EndoSz mutants (Herceptin-GlcNAc; EndoSz-D234M set to 100%, NSCT-oxa donor, best conditions): 100% | 1N-G2S2 (hemi-glycosylated) (Herceptin-GlcNAc): 4.8% | 2N-G2S2 (fully glycosylated) (Herceptin-GlcNAc): 91.85% | GlcNAc(F) (unreacted acceptor) (Herceptin-GlcNAc): 3.35% | 1N-Glycan (Herceptin-GlcNAc; glycan G0, 20:1): 2.58% | 2N-Glycan (Herceptin-GlcNAc; glycan G0, 20:1): 96.50% | GlcNAc(F) (Herceptin-GlcNAc; glycan G0, 20:1): 0.91% | 1N-Glycan (Herceptin-GlcNAc; glycan G2, 20:1): 4.52% | 2N-Glycan (Herceptin-GlcNAc; glycan G2, 20:1): 94.87% | GlcNAc(F) (Herceptin-GlcNAc; glycan G2, 20:1): 0.61% | 1N-Glycan (Herceptin-GlcNAc; glycan M3 (40eq)): 6.51% | 2N-Glycan (Herceptin-GlcNAc; glycan M3 (40eq)): 92.37% | GlcNAc(F) (Herceptin-GlcNAc; glycan M3 (40eq)): 1.11% | GlcNAc(F) (unreacted acceptor) (Herceptin-GlcNAc-F): 1.72% | 1N-G2S2 (hemi-glycosylated) (Herceptin-GlcNAc-F): 4.00% | 2N-G2S2 (fully glycosylated, Herceptin-2N-G2S2F) (Herceptin-GlcNAc-F): 94.29% | 1N-Glycan (Herceptin-GlcNAc-F; glycan type G0F): 2.45% | 2N-Glycan (Herceptin-GlcNAc-F; glycan type G0F): 97.55% | GlcNAc(F) (Herceptin-GlcNAc-F; glycan type G0F): 0.00% | 1N-Glycan (Herceptin-GlcNAc-F; glycan type G2F): 2.64% | 2N-Glycan (Herceptin-GlcNAc-F; glycan type G2F): 97.14% | GlcNAc(F) (Herceptin-GlcNAc-F; glycan type G2F): 0.21% | 1N-Glycan (Herceptin-GlcNAc-F; glycan type M3F): 4.95% | 2N-Glycan (Herceptin-GlcNAc-F; glycan type M3F): 94.44% | GlcNAc(F) (Herceptin-GlcNAc-F; glycan type M3F): 0.62%
